Measurements from publication doi:10.1101/2024.04.26.591323.

T1: TG2 (transglutaminase 2), tag-free (Homo sapiens, UniProt P21980 1-687)
T1 sequence: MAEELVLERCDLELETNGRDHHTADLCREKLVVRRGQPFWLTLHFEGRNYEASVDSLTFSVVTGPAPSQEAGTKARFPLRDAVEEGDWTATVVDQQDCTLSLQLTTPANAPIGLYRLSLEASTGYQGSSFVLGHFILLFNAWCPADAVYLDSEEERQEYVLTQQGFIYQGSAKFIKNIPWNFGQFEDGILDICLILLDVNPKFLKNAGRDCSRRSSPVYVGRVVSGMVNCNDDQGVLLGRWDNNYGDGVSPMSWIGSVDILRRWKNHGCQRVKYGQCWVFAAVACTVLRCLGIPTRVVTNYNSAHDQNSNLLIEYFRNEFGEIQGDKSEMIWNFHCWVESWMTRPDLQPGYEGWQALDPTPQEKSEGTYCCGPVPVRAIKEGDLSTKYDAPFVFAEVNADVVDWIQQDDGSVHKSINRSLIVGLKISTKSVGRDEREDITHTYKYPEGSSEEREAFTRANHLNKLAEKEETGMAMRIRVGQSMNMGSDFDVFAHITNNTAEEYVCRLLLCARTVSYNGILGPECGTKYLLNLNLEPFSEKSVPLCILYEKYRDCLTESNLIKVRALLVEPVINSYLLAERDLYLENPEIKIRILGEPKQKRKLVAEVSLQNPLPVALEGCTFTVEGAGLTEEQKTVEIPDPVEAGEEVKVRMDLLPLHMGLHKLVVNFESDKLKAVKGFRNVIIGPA

T2: TG2 (transglutaminase 2), His6-tagged (Homo sapiens, UniProt P21980 1-687)
T2 sequence: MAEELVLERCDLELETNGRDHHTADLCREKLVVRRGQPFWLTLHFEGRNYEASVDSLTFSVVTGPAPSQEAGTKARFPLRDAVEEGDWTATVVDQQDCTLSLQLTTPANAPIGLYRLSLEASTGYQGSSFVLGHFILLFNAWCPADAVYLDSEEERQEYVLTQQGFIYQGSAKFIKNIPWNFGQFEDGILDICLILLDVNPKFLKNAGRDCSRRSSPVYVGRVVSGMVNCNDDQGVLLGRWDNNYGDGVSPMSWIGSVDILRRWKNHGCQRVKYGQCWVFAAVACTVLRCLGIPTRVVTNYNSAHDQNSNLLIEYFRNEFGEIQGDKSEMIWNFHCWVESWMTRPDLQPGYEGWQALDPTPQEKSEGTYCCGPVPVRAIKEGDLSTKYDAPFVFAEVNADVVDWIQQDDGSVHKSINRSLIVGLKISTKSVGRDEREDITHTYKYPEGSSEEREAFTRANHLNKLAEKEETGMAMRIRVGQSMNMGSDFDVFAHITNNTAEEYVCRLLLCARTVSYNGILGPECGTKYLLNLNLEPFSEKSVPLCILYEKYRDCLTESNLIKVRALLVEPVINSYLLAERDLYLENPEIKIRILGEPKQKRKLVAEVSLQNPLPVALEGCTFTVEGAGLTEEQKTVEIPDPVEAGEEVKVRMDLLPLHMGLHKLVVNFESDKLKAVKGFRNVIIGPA


How the values were obtained:
[1] = target: T1, TG2 (transglutaminase 2), tag-free; assay: BLI
[2] = target: T2, TG2 (transglutaminase 2), His6-tagged; assay: pull-down

Binder | Kd [1] | binding result [2]
CCUGGUUUUUAAGGAGUGUCGCCAGAGUGCCGCGAAUGAAAAAC (structured_RNA) [43-mer RNA 3' End Biotin] | 88 nM | 
AAAAAAAAAAAAAAAAAAAAAAAAAAAAAAAAAAAAAAAAAAAAAAAAA (ssDNA) [poly(dA) 3' End Biotin] |  | no binding
GGGGGGAGGGGGGAGGGGGGAGGGGGGAGGGGGGAGGGGGGAGGGGGGA (ssDNA) [poly(dG) 3' End Biotin] |  | binds
